Data on four molecules can be found in article PMC7925690, “A molecular switch in sulfur metabolism to reduce arsenic and enrich selenium in rice grain” (Nature Communications, 2021).

The Kd is a measure of binding affinity in units of concentration. A low value points to higher affinity. What is called stoichiometry N is a count of units in the complex or per binding partner.

One test deals with T1, OsASTOL1 (Oryza sativa, UniProt Q9XEA6).
T1 construct: gene RCS1; mature form, N-terminal 87 residues (first 261 bp) deleted; C-terminal His tag (pET-29a NdeI/XhoI); E. coli BL21(DE3); Ni-NTA; dimer by SEC
Description: microscale thermophoresis, RED-tris-NTA labelled His-tagged protein. Format: binding. (In general: Microscale thermophoresis detects binding through changes in fluorescence in a small temperature gradient.)

The target in another test is T2, AtOAS-TL A (Arabidopsis thaliana, UniProt P47998).
T2 construct: gene OASA1; full-length ORF, C-terminal His tag (pET-29a NdeI/XhoI); E. coli BL21(DE3); Ni-NTA
Described as above. Format: binding.

Test [1] addresses mature OsASTOL1^S189N protein (untagged) (rice (Oryza sativa cv. Kasalath)) (UniProt Q9XEA6). Nature of the test: SEC; HiLoad 16/60 Superdex 200 prep grade, 20 mM Tris-HCl, 150 mM NaCl, pH 7.5, 1 ml/min; 1 mg protein in 1 ml injected; molecular weight from a calibration curve. A general note: In gel filtration, larger molecules generally elute earlier.
In test [2] the target is mature OsASTOL1 protein (untagged) (rice (Oryza sativa cv. Kasalath)) (UniProt Q9XEA6). The description is as above.
Another test addresses T3, AtOAS-TL A-His (Arabidopsis thaliana, UniProt P47998 1-322, labeled with RED-tris-NTA 2nd Generation Dye).
T3 construct: Arabidopsis thaliana cytosolic O-acetylserine(thiol)lyase A; ORF without the stop codon; Cloned into the NdeI/XhoI sites of pET-29a; also called His-tagged AtOAS-TL A; source: E. coli BL21 (DE3), purified (Ni-NTA); not shown: His, C-terminal, kept
Nature of the test: MST; His-tagged OAS-TL labeled with RED-tris-NTA 2nd Generation Dye (100 µM as printed) with a serial dilution of the AtSAT5C10 peptide; PBS pH 7.6, 0.05% Tween 20; Monolith NT.115. Conditions: both partners purified.

Another test has as its target T4, AtOAS-TL A^S102N-His (Arabidopsis thaliana, UniProt P47998 1-322, S102N, labeled with RED-tris-NTA 2nd Generation Dye).
T4 construct: Arabidopsis thaliana cytosolic O-acetylserine(thiol)lyase A, site-directed mutant; ORF without the stop codon; Cloned into the NdeI/XhoI sites of pET-29a; also called His-tagged AtOAS-TL A^S102N; source: E. coli BL21 (DE3), purified (Ni-NTA); not shown: His, C-terminal, kept
The test is described as above. Conditions: both partners purified.

T2 sequence (P47998 whole entry): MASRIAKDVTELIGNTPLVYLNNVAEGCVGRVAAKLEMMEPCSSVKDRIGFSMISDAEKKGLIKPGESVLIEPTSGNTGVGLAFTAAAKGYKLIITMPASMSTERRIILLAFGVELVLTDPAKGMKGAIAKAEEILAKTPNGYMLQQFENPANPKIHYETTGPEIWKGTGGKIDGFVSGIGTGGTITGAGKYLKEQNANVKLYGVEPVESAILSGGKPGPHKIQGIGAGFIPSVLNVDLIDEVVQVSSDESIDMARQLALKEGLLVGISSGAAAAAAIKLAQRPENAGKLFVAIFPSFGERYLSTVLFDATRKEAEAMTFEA
T3 sequence (P47998 whole entry): as above
T1 sequence (Q9XEA6 whole entry): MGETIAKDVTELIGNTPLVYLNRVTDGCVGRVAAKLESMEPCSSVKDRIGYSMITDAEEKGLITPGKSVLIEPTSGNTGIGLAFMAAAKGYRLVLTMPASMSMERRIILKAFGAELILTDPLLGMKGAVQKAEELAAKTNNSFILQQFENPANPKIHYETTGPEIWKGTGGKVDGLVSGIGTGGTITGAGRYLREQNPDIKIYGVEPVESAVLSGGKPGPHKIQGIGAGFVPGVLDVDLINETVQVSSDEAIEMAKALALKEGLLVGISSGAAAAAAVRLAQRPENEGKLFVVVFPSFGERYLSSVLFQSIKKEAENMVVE
T4 sequence (P47998 whole entry S102N): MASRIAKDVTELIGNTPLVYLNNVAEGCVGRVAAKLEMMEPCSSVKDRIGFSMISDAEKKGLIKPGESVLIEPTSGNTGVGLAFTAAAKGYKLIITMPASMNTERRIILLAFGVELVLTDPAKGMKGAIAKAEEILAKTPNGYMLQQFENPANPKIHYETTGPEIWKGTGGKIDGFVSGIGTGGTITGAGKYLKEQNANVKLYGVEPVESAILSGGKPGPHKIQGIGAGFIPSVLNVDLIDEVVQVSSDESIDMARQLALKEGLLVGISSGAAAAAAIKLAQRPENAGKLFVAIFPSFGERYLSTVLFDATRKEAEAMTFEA

In the case of `CC(=O)OC[C@H](N)C(=O)O` [OAS], the Kd on OsASTOL1 stood at 1.47 ± 2.42 nM; on AtOAS-TL A it was 13.1 ± 4.83 nM.
In turn, “mature OsASTOL1^S189N protein (untagged) (from UniProt Q9XEA6 88-321) (enzyme)” had a stoichiometry N in test [1] of 2.
In test [2], “mature OsASTOL1 protein (untagged) (from UniProt Q9XEA6 88-321) (enzyme)” registered a stoichiometry N of 2.

B1: AtSAT5C10 peptide (peptide)
peptide: FISEWSDYII
notes: Ten C-terminal residues of Arabidopsis thaliana serine acetyltransferase 5 (AtSAT5), AT5G56760; also called C-terminal fragment of SAT5; AtSAT5C10 fragment; source: synthetic peptide (GenScript Biotech, Nanjing)
Turning to B1, the binding result with AtOAS-TL A-His and in the test with AtOAS-TL A^S102N-His was “binds” throughout.
